Usually Kd stands for the constant that tells how readily two partners part at equilibrium.

For assay [1], the target named is T1, human FCγRIIIa receptor (human, UniProt P08637 17-208, limits assumed).
T1 construct: Used in solution as the 'antigen' in BLI; also called FcγIIIa receptor
Nature of the assay: BLI; Ratio against the hIgG (hIgG1) control, fits KD(hIgG)/KD(sample). As for the experimental part:
(§1) (3) Preparation of antigen working solution: 200 nM antigen (FCγRIIIa) in SD buffer was first prepared at and then serially diluted in 2 folds to prepare a total of 5 concentration gradients, in addition to which a zero concentration was prepared.
(§2) (11) Data analysis: related constants, such as KD, Kon, Koff, X2, Full R2 and the like were calculated in Data Analysis software.
(§3) In the examples of the present application, the modified bispecific antibody was subjected to BLI test to determine the affinity of the modified bispecific antibody to human FCγRIIIa.
(BLI is a label-free optical method that tracks binding on a fibre tip over time.)

For assay [2], the target named is T1, human FCγRIIIa receptor. Nature of the assay: BLI (Octet 96), antibody loaded on sensor, FCγRIIIa 200 nM and 2-fold dilutions in solution. As for the experimental part:
as §1, §2, §3

T1 sequence (P08637 17-208 limits assumed): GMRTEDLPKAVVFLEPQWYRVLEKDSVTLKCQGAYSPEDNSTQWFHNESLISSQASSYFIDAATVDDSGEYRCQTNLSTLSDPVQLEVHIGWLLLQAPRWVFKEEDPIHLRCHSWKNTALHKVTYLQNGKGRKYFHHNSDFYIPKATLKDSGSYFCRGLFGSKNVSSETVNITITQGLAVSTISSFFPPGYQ

B1: bispecific antibody BM#1 against CD33 and CD123 (bispecific antibody, human IgG1)
chain 1: QVQLVESGGGSVQAGGSLRLSCAASGYTYSSTCIGWFRQAPGKDREGVAFAYTGGGVTYADSVKGRFTISQDNAKNTVHLIMNSLKPEDTAMYYCAAKTRGGCWAAAAFYNYWGQGTQVTVSSEPKSCDKTHTCPPCPAPELLGGPSVFLFPPKPKDTLMISRTPEVTCVVVDVSHEDPEVKFNWYVDGVEVHNAKTKPREEQYNSTYRVVSVLTVLHQDWLNGKEYKCKVSNKALPAPIEKTISKAKGQPREPQVYTLPPSRDELTKNQVSLWCLVKGFYPSDIAVEWESNGQPENNYKTTPPVLVSDGSFTLYSKLTVDKSRWQQGNVFSCSVMHEALHNHYTQKSLSLSPGK
chain 2: not shown
notes: VHH-Fc heterodimer
Regarding B1, the Ratio with human FCγRIIIa receptor [1] came out at 1.29. Also, binding with human FCγRIIIa receptor [2] was put at a Kd of 68.9 nM.

B2: bispecific antibody BM#21 against CD33 and CD123 (bispecific antibody, human IgG1)
chain 1: QVQLVESGGGSVQAGGSLRLSCAASGYTYSSTCIGWFRQAPGKDREGVAFAYTGGGVTYADSVKGRFTISQDNAKNTVHLIMNSLKPEDTAMYYCAAKTRGGCWAAAAFYNYWGQGTQVTVSSEPKSCDKTHTCPPCPAPELLGGPSVFLFPPKPKDTLMISRTPEVTCVVVDVSHEDPEVKFNWYVDGVEVHNAKTKPREEQYNSTYRVVSVLTVLHQDWLNGKEYKCKVSNKALPAPIEKTISKAKGQPREPQVYTLPPSRKELTKNQVSLTCLVKGFYPSDIAVEWESNGQPENNYKTTPPVLVSDGSFTLYSKLTVDKSRWQQGNVFSCSVMHEALHNHYTQKSLSLSPGK
chain 2: not shown
notes: VHH-Fc heterodimer; also called BM-RT2831-#21
In the case of B2, in the assay with human FCγRIIIa receptor [1], the Ratio stood at 1.04. Moreover, the Kd in the assay with human FCγRIIIa receptor [2] worked out at 85.4 nM.

B3: bispecific antibody BM#13 against CD33 and CD123 (bispecific antibody, human IgG1)
chain 1: not shown
chain 2: QVQLVESGGGSVQAGGSLKLSCAASRFIFSRCGMGWFRQAPGKERELVSTISGDGTTFYADSVKGRFTISQHNAATTLYLQMNSLKLEDTAVYYCAADCYNRKYWGQGTQVTVSSEPKSCDKTHTCPPCPAPELLGGPSVFLFPPKPKDTLMISRTPEVTCVVVDVSHEDPEVKFNWYVDGVEVHNAKTKPREEQYNSTYRVVSVLTVLHQDWLNGKEYKCKVSNKALPAPIEKTISKAKGQPREPQVYTLPPSRDELTKNQVSLTCLVKGFYPSDIAVEWESNGQPENNYKTTPPVLVSDGSFTLASKLTVDKSRWQQGNVFSCSVMHEALHNHYTQKSLSLSPGK
notes: VHH-Fc heterodimer
For B3, the Ratio with human FCγRIIIa receptor [1] was 1.42. For the same molecule, the equilibrium dissociation constant (Kd) in the assay with human FCγRIIIa receptor [2] was 62.5 nM.

B4: bispecific antibody BM#4 against CD33 and CD123 (bispecific antibody, human IgG1)
chain 1: QVQLVESGGGSVQAGGSLRLSCAASGYTYSSTCIGWFRQAPGKDREGVAFAYTGGGVTYADSVKGRFTISQDNAKNTVHLIMNSLKPEDTAMYYCAAKTRGGCWAAAAFYNYWGQGTQVTVSSEPKSCDKTHTCPPCPAPELLGGPSVFLFPPKPKDTLMISRTPEVTCVVVDVSHEDPEVKFNWYVDGVEVHNAKTKPREEQYNSTYRVVSVLTVLHQDWLNGKEYKCKVSNKALPAPIEKTISKAKGQPREPQVYTLPPSRDKLTKNQVSLVCLVKGFYPSDIAVEWESNGQPENNYKTTPPVLKSDGSFFLYSKLTVDKSRWQQGNVFSCSVMHEALHNHYTQKSLSLSPGK
chain 2: QVQLVESGGGSVQAGGSLKLSCAASRFIFSRCGMGWFRQAPGKERELVSTISGDGTTFYADSVKGRFTISQHNAATTLYLQMNSLKLEDTAVYYCAADCYNRKYWGQGTQVTVSSEPKSCDKTHTCPPCPAPELLGGPSVFLFPPKPKDTLMISRTPEVTCVVVDVSHEDPEVKFNWYVDGVEVHNAKTKPREEQYNSTYRVVSVLTVLHQDWLNGKEYKCKVSNKALPAPIEKTISKAKGQPREPQVYTLPPSRDELTKNQVSLTCLVEGFYPSDIAVEWESNGQPENNYKTTPPVLDSDGSFFLASDLTVDKSRWQQGNVFSCSVMHEALHNHYTQKSLSLSPGK
notes: VHH-Fc heterodimer; also called BM-RT2831-#4
Regarding B4, the Ratio with human FCγRIIIa receptor [1] amounted to 1.19. This molecule also came in with a dissociation constant Kd with human FCγRIIIa receptor [2] of 74.2 nM.

B5: bispecific antibody BM#12 against CD33 and CD123 (bispecific antibody, human IgG1)
chain 1: QVQLVESGGGSVQAGGSLRLSCAASGYTYSSTCIGWFRQAPGKDREGVAFAYTGGGVTYADSVKGRFTISQDNAKNTVHLIMNSLKPEDTAMYYCAAKTRGGCWAAAAFYNYWGQGTQVTVSSEPKSCDKTHTCPPCPAPELLGGPSVFLFPPKPKDTLMISRTPEVTCVVVDVSHEDPEVKFNWYVDGVEVHNAKTKPREEQYNSTYRVVSVLTVLHQDWLNGKEYKCKVSNKALPAPIEKTISKAKGQPREPQVYTLPPSRDELTKNQVSLWCLVEGFYPSDIAVEWESNGQPENNYKTTPPVLDSDGSFFLYSDLTVDKSRWQQGNVFSCSVMHEALHNHYTQKSLSLSPGK
chain 2: not shown
notes: VHH-Fc heterodimer
As for B5, the Ratio with human FCγRIIIa receptor [1] is 1.65. Moreover, the dissociation constant Kd with human FCγRIIIa receptor [2] came to 53.8 nM.

B6: bispecific antibody BM#22 against CD33 and CD123 (bispecific antibody, human IgG1)
chain 1: QVQLVESGGGSVQAGGSLRLSCAASGYTYSSTCIGWFRQAPGKDREGVAFAYTGGGVTYADSVKGRFTISQDNAKNTVHLIMNSLKPEDTAMYYCAAKTRGGCWAAAAFYNYWGQGTQVTVSSEPKSCDKTHTCPPCPAPELLGGPSVFLFPPKPKDTLMISRTPEVTCVVVDVSHEDPEVKFNWYVDGVEVHNAKTKPREEQYNSTYRVVSVLTVLHQDWLNGKEYKCKVSNKALPAPIEKTISKAKGQPREPQVYTLPPSRDKLTKNQVSLTCLVKGFYPSDIAVEWESNGQPENNYKTTPPVLVSDGSFTLYSKLTVDKSRWQQGNVFSCSVMHEALHNHYTQKSLSLSPGK
chain 2: not shown
notes: VHH-Fc heterodimer; also called BM-RT2831-#22
Take B6: in the assay with human FCγRIIIa receptor [1], the Ratio is 1.03. For the same molecule, the Kd in the assay with human FCγRIIIa receptor [2] amounted to 86.3 nM.

B7: bispecific antibody BM#3 against CD33 and CD123 (bispecific antibody, human IgG1)
chain 1: QVQLVESGGGSVQAGGSLRLSCAASGYTYSSTCIGWFRQAPGKDREGVAFAYTGGGVTYADSVKGRFTISQDNAKNTVHLIMNSLKPEDTAMYYCAAKTRGGCWAAAAFYNYWGQGTQVTVSSEPKSCDKTHTCPPCPAPELLGGPSVFLFPPKPKDTLMISRTPEVTCVVVDVSHEDPEVKFNWYVDGVEVHNAKTKPREEQYNSTYRVVSVLTVLHQDWLNGKEYKCKVSNKALPAPIEKTISKAKGQPREPQVYTLPPSRDELTKNQVSLVCLVKGFYPSDIAVEWESNGQPENNYKTTPPVLVSDGSFTLYSKLTVDKSRWQQGNVFSCSVMHEALHNHYTQKSLSLSPGK
chain 2: not shown
notes: VHH-Fc heterodimer; also called BM-RT2831-#3
B7: the Ratio with human FCγRIIIa receptor [1] turned out to be 1. This molecule also yielded a Kd with human FCγRIIIa receptor [2] of 88.2 nM.

B8: bispecific antibody BM#14 against CD33 and CD123 (bispecific antibody, human IgG1)
chain 1: QVQLVESGGGSVQAGGSLRLSCAASGYTYSSTCIGWFRQAPGKDREGVAFAYTGGGVTYADSVKGRFTISQDNAKNTVHLIMNSLKPEDTAMYYCAAKTRGGCWAAAAFYNYWGQGTQVTVSSEPKSCDKTHTCPPCPAPELLGGPSVFLFPPKPKDTLMISRTPEVTCVVVDVSHEDPEVKFNWYVDGVEVHNAKTKPREEQYNSTYRVVSVLTVLHQDWLNGKEYKCKVSNKALPAPIEKTISKAKGQPREPQVYTLPPSRDELTKNQVSLVCLVEGFYPSDIAVEWESNGQPENNYKTTPPVLDSDGSFFLYSDLTVDKSRWQQGNVFSCSVMHEALHNHYTQKSLSLSPGK
chain 2: QVQLVESGGGSVQAGGSLKLSCAASRFIFSRCGMGWFRQAPGKERELVSTISGDGTTFYADSVKGRFTISQHNAATTLYLQMNSLKLEDTAVYYCAADCYNRKYWGQGTQVTVSSEPKSCDKTHTCPPCPAPELLGGPSVFLFPPKPKDTLMISRTPEVTCVVVDVSHEDPEVKFNWYVDGVEVHNAKTKPREEQYNSTYRVVSVLTVLHQDWLNGKEYKCKVSNKALPAPIEKTISKAKGQPREPQVYTLPPSRDKLTKNQVSLTCLVKGFYPSDIAVEWESNGQPENNYKTTPPVLKSDGSFFLASKLTVDKSRWQQGNVFSCSVMHEALHNHYTQKSLSLSPGK
notes: VHH-Fc heterodimer
Turning to B8, in the assay with human FCγRIIIa receptor [1], the Ratio turned out to be 1.61. Also, binding with human FCγRIIIa receptor [2] was put at a Kd of 55.2 nM.

B9: bispecific antibody BM#2 against CD33 and CD123 (bispecific antibody, human IgG1)
chain 1: QVQLVESGGGSVQAGGSLRLSCAASGYTYSSTCIGWFRQAPGKDREGVAFAYTGGGVTYADSVKGRFTISQDNAKNTVHLIMNSLKPEDTAMYYCAAKTRGGCWAAAAFYNYWGQGTQVTVSSEPKSCDKTHTCPPCPAPELLGGPSVFLFPPKPKDTLMISRTPEVTCVVVDVSHEDPEVKFNWYVDGVEVHNAKTKPREEQYNSTYRVVSVLTVLHQDWLNGKEYKCKVSNKALPAPIEKTISKAKGQPREPQVYTLPPSRDKLTKNQVSLWCLVKGFYPSDIAVEWESNGQPENNYKTTPPVLKSDGSFFLYSKLTVDKSRWQQGNVFSCSVMHEALHNHYTQKSLSLSPGK
chain 2: not shown
notes: VHH-Fc heterodimer
Turning to B9, the Ratio with human FCγRIIIa receptor [1] came out at 1.12. The affinity with human FCγRIIIa receptor [2], expressed as Kd, was 79.1 nM.

B10: bispecific antibody BM#23 against CD33 and CD123 (bispecific antibody, human IgG1)
chain 1: QVQLVESGGGSVQAGGSLRLSCAASGYTYSSTCIGWFRQAPGKDREGVAFAYTGGGVTYADSVKGRFTISQDNAKNTVHLIMNSLKPEDTAMYYCAAKTRGGCWAAAAFYNYWGQGTQVTVSSEPKSCDKTHTCPPCPAPELLGGPSVFLFPPKPKDTLMISRTPEVTCVVVDVSHEDPEVKFNWYVDGVEVHNAKTKPREEQYNSTYRVVSVLTVLHQDWLNGKEYKCKVSNKALPAPIEKTISKAKGQPREPQVYTLPPSRDDLTKNQVSLTCLVKGFYPSDIAVEWESNGQPENNYKTTPPVLVSDGSFTLYSKLTVDKSRWQQGNVFSCSVMHEALHNHYTQKSLSLSPGK
chain 2: not shown
notes: VHH-Fc heterodimer; also called BM-RT2831-#23
With B10, the Ratio with human FCγRIIIa receptor [1] was found to be 1.08. Further, the dissociation constant Kd with human FCγRIIIa receptor [2] came to 82.1 nM.

B11: bispecific antibody BM#24 against CD33 and CD123 (bispecific antibody, human IgG1)
chain 1: QVQLVESGGGSVQAGGSLRLSCAASGYTYSSTCIGWFRQAPGKDREGVAFAYTGGGVTYADSVKGRFTISQDNAKNTVHLIMNSLKPEDTAMYYCAAKTRGGCWAAAAFYNYWGQGTQVTVSSEPKSCDKTHTCPPCPAPELLGGPSVFLFPPKPKDTLMISRTPEVTCVVVDVSHEDPEVKFNWYVDGVEVHNAKTKPREEQYNSTYRVVSVLTVLHQDWLNGKEYKCKVSNKALPAPIEKTISKAKGQPREPQVYTLPPSRKDLTKNQVSLTCLVKGFYPSDIAVEWESNGQPENNYKTTPPVLDSDGSFFLASKLTVDKSRWQQGNVFSCSVMHEALHNHYTQKSLSLSPGK
chain 2: QVQLVESGGGSVQAGGSLKLSCAASRFIFSRCGMGWFRQAPGKERELVSTISGDGTTFYADSVKGRFTISQHNAATTLYLQMNSLKLEDTAVYYCAADCYNRKYWGQGTQVTVSSEPKSCDKTHTCPPCPAPELLGGPSVFLFPPKPKDTLMISRTPEVTCVVVDVSHEDPEVKFNWYVDGVEVHNAKTKPREEQYNSTYRVVSVLTVLHQDWLNGKEYKCKVSNKALPAPIEKTISKAKGQPREPQVYTLPPSRDELTKNQVSLTCLVYGFYPSDIAVEWESNGQPENNYKTTPPVLDSDGSFFLYSVLTVDKSRWQQGNVFSCSVMHEALHNHYTQESLSLSPGK
notes: VHH-Fc heterodimer; also called BM-RT2831-#24
Regarding B11, in the assay with human FCγRIIIa receptor [1], the Ratio stood at 1.06. The molecule also returned a Kd with human FCγRIIIa receptor [2] of 83.3 nM.

Values taken from US20250163166A1 (REGENECORE BIOTECH, published 2025).
